# T1: ANG2 (human, UniProt O15123 19-496, limits assumed)
# T1 sequence: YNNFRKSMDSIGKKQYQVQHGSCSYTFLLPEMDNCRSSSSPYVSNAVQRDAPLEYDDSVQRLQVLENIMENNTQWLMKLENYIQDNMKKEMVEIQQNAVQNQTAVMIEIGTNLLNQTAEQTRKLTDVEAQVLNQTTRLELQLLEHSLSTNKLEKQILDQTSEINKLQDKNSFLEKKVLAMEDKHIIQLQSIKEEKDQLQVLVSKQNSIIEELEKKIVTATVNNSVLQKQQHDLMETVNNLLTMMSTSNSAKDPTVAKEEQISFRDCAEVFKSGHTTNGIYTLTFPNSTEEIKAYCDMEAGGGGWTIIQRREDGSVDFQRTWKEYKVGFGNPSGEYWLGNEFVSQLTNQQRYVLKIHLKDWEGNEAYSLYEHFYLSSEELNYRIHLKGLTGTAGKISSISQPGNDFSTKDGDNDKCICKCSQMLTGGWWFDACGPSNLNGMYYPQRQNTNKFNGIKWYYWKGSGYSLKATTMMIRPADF
# T2: human Ang2-RBD-muFc (human, UniProt O15123 275-496, limits assumed)
# T2 construct: also called Human ANG2 (KinExA); not shown: murine Fc (muFc)
# T2 sequence: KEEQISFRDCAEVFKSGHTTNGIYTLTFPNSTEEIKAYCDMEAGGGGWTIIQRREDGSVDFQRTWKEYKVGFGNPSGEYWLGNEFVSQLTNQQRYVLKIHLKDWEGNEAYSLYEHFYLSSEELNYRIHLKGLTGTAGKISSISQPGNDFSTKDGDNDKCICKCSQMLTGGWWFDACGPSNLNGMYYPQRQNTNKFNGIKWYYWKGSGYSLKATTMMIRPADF
# B1: Nesvacumab-analogue (antibody, human IgG1, kappa, L234A L235A, V domains shown)
# VH: AVQLVASGGGLVQPGGSLRLSCAASGFTFSSYDIHWVRQATGKGLEWVSAIGPAGDTYYPGSVKGRFTISRENAKNSLYLQMNSLRAGDTAVYYCARGLITFGGLIAPFDYWGQGTLVTVSS
# VL: IVLTQSPGTLSLSPGERATLSCRASQSVSSTYLAWYQQKPGQAPRLLIYGASSRATGIPDRFSGSGSGTDFTLTISRLEPEDFAVYYCQHYDNSQTFGQGTKVEIKR
# notes: also called Nesvacumab (INN); Nesvacumab Mab
# Tests used:
# [1] = molecular target: T1, ANG2; test: cell-based or functional assay
# [2] = molecular target: T2, human Ang2-RBD-muFc; test: KinExA, human ANG2 (Ang2-RBD-muFc) by the table's title; the column's head prints VEGFA-121
# Procedure: All KinExA® experiments were performed at room temperature (RT) using PBS pH 7.4 with 0.01% BSA and 0.01% Tween® 20 (BioRad, #161-0781) as running buffer. […] A flow rate of 0.25 ml/min was used. A constant amount of Ang2-RBD-muFc (50 pM and in a second experiment 500 pM) was titrated with tested antibody by twofold serial dilution starting at 4 nM (concentration range 1.95 pM-4000 pM). Antigen-antibody complexes were incubated at RT for at least 8 h to allow equilibrium to be reached. Equilibrated mixtures were then drawn through a column of Anti-Ang2 antibody (MAB098) coupled beads in the KinExA® system at a volume of 750 μl for 50 pM constant Ang2 and at a volume of 188 μl for 500 pM constant Ang2 permitting unbound Ang2 to be captured by the beads without perturbing the equilibrium state of the solution. Bound Ang2 was detected using a second biotinylated anti-Ang2 antibody (BAM0981) with a concentration of 250 ng/ml and following by an injection of 250 ng/ml Streptavidin Alexa Fluor™ 647 conjugate in sample buffer. Each sample was measured in duplicates for all equilibrium experiments. The KD was obtained from non-linear regression analysis of the data using a one-site homogeneous binding model contained within the KinExA® software (Version 4.0.11) using the “standard analysis” method. […]
binder,measurement,setting,value
B1,"IC50, pTie2-Assay (Tie2 phosphorylation in Hek293 cells expressing Tie2, stimulated with Ang-2)",[1],6 nM
same,Kd,[2],0.01 nM

# From patent publication US20220073599A1 (Hoffmann-La Roche, published 2022)
